# Measurements taken from patent US20040110231A1 (Takeda / Millennium, published 2004).
# Where no end group is shown, it is not given here. [ ]: non-standard residue; d: D form. Met(O) = CS(=O)CC[C@H](N)C(=O)O
# B1: mouse GPR8 ligand (1-23) (peptide)
# peptide: WYKHVASPRYHTVGRASGLLMGL
# notes: also called mouse homolog to hGPR8L (1-23)
# B2: rat GPR8 ligand (1-23) (peptide)
# peptide: WYKHVASPRYHTVGRASGLLMGL
# notes: also called rat homolog to hGPR8L (1-23)
# B3: mouse homolog to hGPR8L (1-30) (peptide)
# peptide: WYKHVASPRYHTVGRASGLLMGLRRSPYQW
# notes: also called mouse homologue of the GPR8 ligand peptide (30 residues)
# B4: porcine homolog to hGPR8L (1-30) (peptide)
# peptide: WYKHTASPRYHTVGRAAGLLMGLRRSPYMW
# notes: also called porcine homologue of the GPR8 ligand peptide (30 residues)
# B5: rat homolog to hGPR8L (1-30) (peptide)
# peptide: WYKHVASPRYHTVGRASGLLMGLRRSPYLW
# notes: also called rat homologue of the GPR8 ligand peptide (30 residues)
# What was measured:
# human GPR8 = human GPR8 (human, UniProt P48146 1-333); test: cell-based or functional assay
# Chain of human GPR8 (P48146 whole entry): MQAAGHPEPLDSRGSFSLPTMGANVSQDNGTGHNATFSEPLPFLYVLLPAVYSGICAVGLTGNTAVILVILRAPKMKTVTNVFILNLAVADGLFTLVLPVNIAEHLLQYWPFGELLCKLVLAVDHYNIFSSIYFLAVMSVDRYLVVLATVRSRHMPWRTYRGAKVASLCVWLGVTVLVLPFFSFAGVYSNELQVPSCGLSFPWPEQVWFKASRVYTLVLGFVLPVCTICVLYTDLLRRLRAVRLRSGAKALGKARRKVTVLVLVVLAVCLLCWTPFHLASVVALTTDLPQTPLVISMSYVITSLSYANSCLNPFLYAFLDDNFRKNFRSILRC
# human GPR7 [1] = target: T1, human GPR7 (human, UniProt P48145 1-328); test: cell-based or functional assay
# T1 sequence: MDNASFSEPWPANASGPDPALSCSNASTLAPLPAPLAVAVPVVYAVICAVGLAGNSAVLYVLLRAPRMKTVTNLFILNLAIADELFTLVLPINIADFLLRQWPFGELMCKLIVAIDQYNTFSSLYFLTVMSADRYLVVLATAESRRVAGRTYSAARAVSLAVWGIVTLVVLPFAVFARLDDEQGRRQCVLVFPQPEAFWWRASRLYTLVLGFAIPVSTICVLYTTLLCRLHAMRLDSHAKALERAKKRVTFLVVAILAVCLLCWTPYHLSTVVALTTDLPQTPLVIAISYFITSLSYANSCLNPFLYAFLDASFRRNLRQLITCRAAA
# human GPR7 [2] = target: T1, human GPR7; test: competition with [125I-Tyr10]-hGPR8L (1-23) as tracer, membrane fraction of human GPR7-expressing CHO cells
# Experimental: The thus prepared cell membrane fraction was diluted in various concentrations with an assay buffer (25 mM Tris-HCl, 5 mM EDTA, 0.05% CHAPS (3-[(3-choramidopropyl)dimethylammonio]-1-propanesulfonate), 0.1% BSA, 0.5 mM PMSF, 1 μg/ml pepstatin, 20 μg/ml leupeptin and 4 μg/ml E-64, pH 7.4). Then, a 200 μl aliquot of the dilution was dispensed into a propylene-made testing tube (Falcon 2053). In order to assay for the total binding, 2 μl of DMSO and 2 μl of 8 nM [¹²⁵I-Tyr¹⁰]-hGPR8L (1-23) was added to the membrane fraction solution. Also, the non-specific binding was assayed by adding 2 μl of a DMSO solution of 1 mM hGPR8L (1-23) and 2 μl of 8 nM [¹²⁵I-Tyr¹⁰]-hGPR8L (1-23) to the membrane fraction solution. After reacting at 25° C. for 75 minutes, the reaction solution was suction-filtrated through a polyethyleneimine-treated Whatman glass filter (GF-F), and the filter was washed twice with ˜1.5 ml of a wash buffer (25 mM Tris-HCl, 5 mM EDTA, 0.05% CHAPS, 0.1% BSA, pH 7.4). After the filtration, the residual radioactivity remained on the filter paper was measured with a γ-counter, and the specific binding was estimated by subtracting the non-specific binding from the total binding.
# It could also be verified that the binding inhibition of [¹²⁵I-Tyr¹⁰]-hGPR8L (1-23) against the human GPR7-expressed CHO cell membrane fraction was noted as described above, when rat and mouse homologs (SEQ ID NO:73 and SEQ ID NO:91) to hGPR8L (1-23) and porcine, rat and mouse homologs (SEQ ID NO:57, SEQ ID NO:74 and SEQ ID NO:92) to hGPR8L (1-30).
# human GPR7 [3] = target: T1, human GPR7; test: cell-based or functional assay; remark: listed apart in the source
Binder,GTPγ S binding promoting activity (EC50 nM) (human GPR8) [nM],GTPγS-Binding promoting activity (EC50 nM) (human GPR7 [1]) [nM],binding result (human GPR7 [2]),intracellular cAMP production suppressing activity (IC50) (human GPR7 [3]) [nM]
XYKHVASPRYHTVGRAAGLLMGL (D-Trp at position 1) [[D-Trp1]-human GPR8 ligand (1-23)],7.1,2.3,,
YKHVASPRYHTVGRAAGLLMGL [human GPR8 ligand (2-23)],3900,7410,,
Ac-YKHVASPRYHTVGRAAGLLMGL [[N-Acetyl-Tyr2]-human GPR8 ligand (2-23)],7200,7000,,
{3‑indolepropanoyl}-YKHVASPRYHTVGRAAGLLMGL [[N-3-Indolepropanyl-Tyr2]-human GPR8 ligand (2-23)],5,0.85,,
HVASPRYHTVGRAAGLLMGL [human GPR8 ligand (4-23)],6700,> 10000,,
RYHTVGRAAGLLMGL [human GPR8 ligand (9-23)],4200,> 10000,,
WYKHVASPRYHTVGRAAGLL [human GPR8 ligand (1-20)],0.86,0.88,,
WYKHVASPRYHTVGRAAGL [human GPR8 ligand (1-19)],1000,84,,
WYKHVASPRYHTVGRAAG [human GPR8 ligand (1-18)],> 10000,6200,,
B1,,,binds,
WYKHTASPRYHTVGRAAGLLMGL [porcine GPR8 ligand (1-23)],1.5,0.35,,
B2,,,binds,
WYKHVASPRYHTVGRAAGLLXGL (Met (O) (methionine sulfoxide) at position 21) [oxidized human GPR8 ligand (1-23)],1.4,1.6,,
WYKHTASPRYHTVGRAAGLL[Met(O)]GL [oxidized porcine GPR8 ligand (1-23)],0.73,1.2,,
WYKHVASPRYHTVGRAAGLLMGL [human GPR8 ligand (1-23)],,0.74,,0.025
WYKHVASPRYHTVGRAAGLLMGLRRSPYLW [human GPR8 ligand (1-30)],,0.67,,
B3,,,binds,
B4,,,binds,
B5,,,binds,
XYKHVASPRYHTVGRAAGLLMGL (N-terminal Fmoc (N-9-fluorenylmethoxycarbonyl) on Trp1) [Fmoc-human GPR8 ligand (1-23)],240,6.6,,
XYKHVASPRYHTVGRAAGLLMGL (Nα-acetyl on Trp1) [[Nα-Acetyl-Trp1]-human GPR8 ligand (1-23)],14,1.5,,
